Columns and labels:
[1] = target: T1, MsGS (Methermicoccus shengliensis, UniProt A0A832VZP6); experiment: PK/LDH coupled assay, NADH oxidation at […] nm; assay type: biochemical; settings: read-out: % inhibition at 20 mM
T1 construct: gene glnA; native, purified anaerobically from M. shengliensis cells, no tag
T1 sequence (A0A832VZP6 1-442): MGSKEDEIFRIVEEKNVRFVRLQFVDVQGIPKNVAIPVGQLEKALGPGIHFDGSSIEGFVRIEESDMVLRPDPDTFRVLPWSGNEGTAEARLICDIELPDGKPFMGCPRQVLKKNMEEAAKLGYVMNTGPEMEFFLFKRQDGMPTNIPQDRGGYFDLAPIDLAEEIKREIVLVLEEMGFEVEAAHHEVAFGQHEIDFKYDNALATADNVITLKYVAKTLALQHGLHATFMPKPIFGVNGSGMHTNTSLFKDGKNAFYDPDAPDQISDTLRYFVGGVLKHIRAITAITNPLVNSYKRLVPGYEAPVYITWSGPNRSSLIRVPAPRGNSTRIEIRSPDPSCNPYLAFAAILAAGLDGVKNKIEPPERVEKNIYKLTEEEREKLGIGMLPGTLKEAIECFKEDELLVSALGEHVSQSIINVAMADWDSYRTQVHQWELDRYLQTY

[2] = target: glutamine synthetase (GSI-α) from Methanothermococcus thermolithotrophicus (Methanothermococcus thermolithotrophicus); experiment: SEC; Superose 6 Increase 10/300 GL, anaerobic, 20 °C, 25 mM Tris/HCl pH 7.6, 10% glycerol, 2 mM DTT, 0.4 ml/min; 76 µg MtGS, 67.5 µg MsGS; size from a fit to standard proteins
[3] = target: glutamine synthetase (GSI-α) from Methanothermococcus thermolithotrophicus (Methanothermococcus thermolithotrophicus); experiment: crystal structure; sitting drop, 20 °C, anaerobic; apo and ligand-bound (2OG/Mg2+, 2OG/Mg2+/ATP, Mg2+/ATP) crystal forms
[4] = target: glutamine synthetase (GSI-α) from Methanothermococcus thermolithotrophicus (Methanothermococcus thermolithotrophicus); experiment: native gel or EMSA; high-resolution clear native PAGE (hrCN PAGE), 5-12% gradient gels, 40 mA for 1 h, 2 µg purified GS; size from a fit to standard proteins
[5] = target: glutamine synthetase (GSI-α) from Methermicoccus shengliensis (Methermicoccus shengliensis); experiment: SEC; Superose 6 Increase 10/300 GL, anaerobic, 20 °C, 25 mM Tris/HCl pH 7.6, 10% glycerol, 2 mM DTT, 0.4 ml/min; 76 µg MtGS, 67.5 µg MsGS; size from a fit to standard proteins
[6] = target: glutamine synthetase (GSI-α) from Methermicoccus shengliensis (Methermicoccus shengliensis); experiment: crystal structure; sitting drop, 20 °C, anaerobic; apo and ligand-bound (2OG/Mg2+, 2OG/Mg2+/ATP, Mg2+/ATP) crystal forms
[7] = target: glutamine synthetase (GSI-α) from Methermicoccus shengliensis (Methermicoccus shengliensis); experiment: native gel or EMSA; high-resolution clear native PAGE (hrCN PAGE), 5-12% gradient gels, 40 mA for 1 h, 2 µg purified GS; size from a fit to standard proteins
[8] = substrate: N[C@@H](CCC(=O)O)C(=O)O; experiment: purified protein; assay type: biochemical, Methanothermococcus thermolithotrophicus; settings: in presence of 2 mM 2OG (required activator), 20 mM NH4Cl, 3 mM ATP, 25 mM MgCl2, pH 7, 45 °C, Hill fit
[9] = substrate: N; experiment: purified protein; settings: 3 mM ATP, 25 mM MgCl2, pH 7, 45 °C, Hill fit
[10] = substrate: N[C@@H](CCC(=O)O)C(=O)O; experiment: purified protein; assay type: biochemical, Methermicoccus shengliensis; settings: 20 mM NH4Cl, 3 mM ATP, 25 mM MgCl2, pH 7, 45 °C, standard mix contains 2 mM 2OG (no effect on MsGS), Hill fit
[11] = in presence of 2 mM 2OG (required activator), 50 mM glutamate
[12] = 80 mM glutamate, standard mix contains 2 mM 2OG (no effect on MsGS)

In the case of `NC(=O)CC[C@H](N)C(=O)O` [glutamine], the inhibition at 20000 µM [1] is reported as 97%.

“glutamine synthetase (GSI-α) from Methanothermococcus thermolithotrophicus (enzyme)” showed a stoichiometry N [2] of 12, a stoichiometry N [3] of 12 and a stoichiometry N [4] of 12.

In the case of “glutamine synthetase (GSI-α) from Methermicoccus shengliensis (enzyme)”, the stoichiometry N [5] is reported as 12, the stoichiometry N [6] is reported as 12 and the stoichiometry N [7] is reported as 12.

B1: MtGS (Methanothermococcus thermolithotrophicus DSM 2095) (protein)
chain: MSTVEQVLEYVKSNNVKFMRFQFVDILGVPKNVAFPIKAGEKGIEELRDVLENGLYFDGSSIEGFVGINESDMMLKPDLSTFSVLPWRPSEKSVARVICDVYTTKGKPFEGDPRGCLKRVMEEFKKEFNGEYFVGPEPEFFLLKKDPHNPHKYIPADDGGYFDLEPMDEAPDIRRDIVFALENLGFHVEASHHEVAPGQHEVDFKFDDALKTADSVITFKTTIKTIAEQHGLKATFMPKPFFGMNGSGMHCHQSIWLNGEPSFYDENAPYQLSETCMNYVAGILKHAKAIVAITNPTVNSYKRLVPGYEAPVNIAWANSNRSAIIRVPAARGKGTRIEFRAPDPSCNPYLAFTVMLAAGLDGVKNKLDAPEPVERNIFAMSEAEKKELGIESVPANLKAALDELENNDVLKNALGKHIFESFLEIKNAEWDSFRTSVTDWETTAYLKI
notes: native, purified anaerobically from M. thermolithotrophicus cells, no tag
B1 gave a Km [8] of 8.76 ± 0.87 mM, a Vmax [8] of 3.42 µmol/min/mg and a Km [9, 11] of 0.14 ± 0.01 mM. For the same molecule, the Vmax [9, 11] was 3.27 µmol/min/mg.

B2: MsGS (Methermicoccus shengliensis) (protein)
chain: MGSKEDEIFRIVEEKNVRFVRLQFVDVQGIPKNVAIPVGQLEKALGPGIHFDGSSIEGFVRIEESDMVLRPDPDTFRVLPWSGNEGTAEARLICDIELPDGKPFMGCPRQVLKKNMEEAAKLGYVMNTGPEMEFFLFKRQDGMPTNIPQDRGGYFDLAPIDLAEEIKREIVLVLEEMGFEVEAAHHEVAFGQHEIDFKYDNALATADNVITLKYVAKTLALQHGLHATFMPKPIFGVNGSGMHTNTSLFKDGKNAFYDPDAPDQISDTLRYFVGGVLKHIRAITAITNPLVNSYKRLVPGYEAPVYITWSGPNRSSLIRVPAPRGNSTRIEIRSPDPSCNPYLAFAAILAAGLDGVKNKIEPPERVEKNIYKLTEEEREKLGIGMLPGTLKEAIECFKEDELLVSALGEHVSQSIINVAMADWDSYRTQVHQWELDRYLQTY
notes: native, purified anaerobically from M. shengliensis cells, no tag
Molecule B2 has a Km [9, 12] of 0.07 ± 0.01 mM, a Vmax [9, 12] of 0.98 µmol/min/mg and a Km [10] of 32.57 ± 3.13 mM. For the same molecule, the Vmax [10] was 1.4 µmol/min/mg.
